For this assay, the target named is Bovine leukemia virus retropepsin (BLV-PR), mature recombinant protease (Bovine leukemia virus). Briefly: enzyme kinetics (initial rate against enzyme concentration); dimer to monomers; BLV-PR 5-200 nM (as monomer) preincubated 15 min at 25°C in reaction buffer (250 mM phosphate pH 5.6, 500 mM NaCl, 10 mM EDTA, 5 mM DTT, 1% glycerol, 1% DMSO), then 1 uM MA-CA fluorogenic substrate, 37°C, rate of the first 3 min, fit of quadratic Eq 1.

Consider “Bovine leukemia virus retropepsin (BLV-PR), mature recombinant protease (enzyme)”, for which the Kd stood at 160 nM.
